T1: human PTH receptor (Mus musculus, UniProt P41593)
T1 construct: mouse cranial bone-derived osteoblast-like cell strain MC3T3-EI cultivated on a 96-well multiplate; endogenous in cells; host or cells: MC3T3-E1 (mouse cranial bone-derived osteoblast-like cells)
T1 sequence (P41593 27-591): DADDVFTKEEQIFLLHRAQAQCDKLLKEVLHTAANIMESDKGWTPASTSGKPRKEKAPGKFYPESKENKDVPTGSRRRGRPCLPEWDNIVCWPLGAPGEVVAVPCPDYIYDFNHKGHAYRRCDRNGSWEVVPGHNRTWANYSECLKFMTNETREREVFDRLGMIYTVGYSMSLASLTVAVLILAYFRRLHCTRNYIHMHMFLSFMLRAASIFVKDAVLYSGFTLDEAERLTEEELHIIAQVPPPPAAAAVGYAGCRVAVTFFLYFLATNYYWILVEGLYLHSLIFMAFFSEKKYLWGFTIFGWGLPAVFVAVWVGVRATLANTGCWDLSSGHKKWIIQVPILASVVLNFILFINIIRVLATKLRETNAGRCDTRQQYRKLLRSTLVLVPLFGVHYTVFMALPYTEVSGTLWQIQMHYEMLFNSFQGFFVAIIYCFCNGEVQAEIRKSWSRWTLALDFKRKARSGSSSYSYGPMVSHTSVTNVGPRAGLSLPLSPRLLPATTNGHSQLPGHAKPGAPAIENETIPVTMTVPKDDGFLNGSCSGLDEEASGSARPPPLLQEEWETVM

B1: [Leu^8 ] human PTH (protein)
chain: SVSEIQLLHNLGKHLNSMERVEWLRKKLQDVHNFVALGAPLAPRDAGSQRPRKKEDNVLVESHEKSLGEADKADVNVLTKAKSQ
B2: [Cys^35 ] human PTH: human PTH (1-84) mutein in which valine at the 35-position was substituted by cysteine (protein)
chain: SVSEIQLMHNLGKHLNSMERVEWLRKKLQDVHNFCALGAPLAPRDAGSQRPRKKEDNVLVESHEKSLGEADKADVNVLTKAKSQ
B3: [Leu^8,18 ] human PTH: human PTH (1-84) mutein in which methionine residues at the 8- and 18-positions were substituted by leucine (protein)
chain: SVSEIQLLHNLGKHLNSLERVEWLRKKLQDVHNFVALGAPLAPRDAGSQRPRKKEDNVLVESHEKSLGEADKADVNVLTKAKSQ
B4: [Leu^18 ] human PTH: human PTH (1-84) mutein in which methionine at the 18-position was substituted by leucine (protein)
chain: SVSEIQLMHNLGKHLNSLERVEWLRKKLQDVHNFVALGAPLAPRDAGSQRPRKKEDNVLVESHEKSLGEADKADVNVLTKAKSQ

The first data set has as its target human PTH receptor.
Assay: not given
Settings: not given
Molecule natural type human PTH (1-84) (ligand) came in with a cAMP production in MC3T3-EI cells; specific activity on the natural type human PTH (relative to natural type human PTH) of 1.
Still for that read-out and setting: the result for [Cys35] human PTH (1-84) (ligand) reads 0.6.
[Leu8,18] human PTH (1-84) (ligand) came in with a cAMP production in MC3T3-EI cells; specific activity on the natural type human PTH (relative to natural type human PTH) of 0.3.
Molecule [Leu18] human PTH (1-84) (ligand) displayed a cAMP production in MC3T3-EI cells; specific activity on the natural type human PTH (relative to natural type human PTH) of 0.2.
On to [Leu8] human PTH (1-84) (ligand), for which the cAMP production in MC3T3-EI cells; specific activity on the natural type human PTH (relative to natural type human PTH) was determined as 1.

For the next data set, the target named is T1, human PTH receptor. Description: cAMP production in osteoblast-like MC3T3-EI cells (modified method of Shigeno et al.). It counts as cell-based. The note with it: specific activity of the muteins on the natural type human PTH (=1.0), 0.01-100 nM analogue, room temperature, 30 minutes. Here is the method:
The biological activity of human PTH muteins obtained in Examples 2 to 6 and natural type human PTH were evaluated by a modification of the method reported by Shigeno et al. [The Journal of Biological Chemistry 263. 18369-18377 (1988)]. A culture solution (Hank's solution containing 20 mM N-2-hydroxyethylpiperazine-N'-2-ethanesulfonic acid (HEPES), 0.1% bovine serum albumin (BSA) and 0.5 mM isobutylmethylxanthine) containing 0.01, 0.1, 1, 10 or 100 nM analogue was added in an amount of 100 μl to mouse cranial bone-derived osteoblast-like cell strain MC3T3-EI cultivated on a 96-well multiplate (Nunclon, Nunc), followed by reaction at room temperature for 30 minutes. After addition of 100 μl of 0.2N hydrochloric acid, the mixture was immersed in boiling water for 2.5 minutes, and cyclic adenosine monophosphate (cAMP) produced by a human PTH receptor was extracted from the cells. The total cAMP in the culture solution and the cells was assayed using a commercial radioimmunoassay kit (cyclic AMP [^125 I] kit "Du Pont-Daiichil", Daiichi Kagaku Yakuhin). An increase in cAMP production depending on the concentration of the human PTH mutein added was always observed. The specific activity of the muteins on the natural type human PTH is as follows: […]
On the technique in general: Changes in cAMP serve as a functional read-out for many G protein-coupled receptors.
For the molecule “Human PTH: natural type parathyroid hormone, polypeptide hormone consisting of 84 amino acids [reference compound]”, the “Specific Activity” value amounted to 1.0.
Same read-out and setting: in the case of B1 it was 1.0.
As for B2, the “Specific Activity” value is listed as 0.6.
Consider B3, for which the “Specific Activity” value worked out at 0.3.
As for B4, the “Specific Activity” value was 0.2.

For the origin of these results see US5856138A, “Human parathyroid hormone muteins and production thereof” (Takeda Chemical Industries, Ltd., priority 1991, dated 1999).
